Data: US20260022169A1 (published 2026)

Molecular target: T1, CLDN18.2 (UniProt P56856 1-261)
T1 chain: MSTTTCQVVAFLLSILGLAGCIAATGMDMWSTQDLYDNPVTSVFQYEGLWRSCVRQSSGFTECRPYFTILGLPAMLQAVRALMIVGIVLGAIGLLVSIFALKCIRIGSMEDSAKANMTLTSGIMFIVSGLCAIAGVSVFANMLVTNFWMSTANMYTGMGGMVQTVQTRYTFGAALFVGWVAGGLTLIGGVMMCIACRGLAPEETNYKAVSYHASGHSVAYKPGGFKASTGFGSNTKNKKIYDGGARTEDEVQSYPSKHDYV
Assay: FACS binding, MC38/CD47/CLDN18.2 cells

B1: hu28 (antibody, V domains shown)
VH: QVQLVQSGAEVKKPGASVKVSCKASGYTFTNWVHWVRQAPGQGLEWMGEINPTNARSNYNEKFKKRVTMTRDTSTSTVYMELSSLRSEDTAVYYCARIYYGNSFAHWGQGTLVTVSS
VL: DIVMTQSPDSLAVSLGERATINCKSSQSLLNAGNQKNYLTWYQQKPGQPPKLLIYWSSTRESGVPDRFSGSGSGTDFTLTISSLQAEDVAVYHCQNNYYYPLTFGGGTKLEIKR
Binder B1 has an EC50 of 3.24 nM.
